Data from paper PMC2603305 (Biochemistry, 2008).
Numbering of substitutions follows the chain as printed. Like-named read-outs stand apart in the source and are kept apart here. Each block holds one molecule with its values, some of them ahead of it.

Legend:
[1] = target: T1, Kvβ2 (β-subunit of the voltage-gated potassium channel) (Rattus norvegicus, UniProt P62483); test: NADPH oxidation, specific activity at […]; type: biochemical
T1 sequence (P62483 39-367): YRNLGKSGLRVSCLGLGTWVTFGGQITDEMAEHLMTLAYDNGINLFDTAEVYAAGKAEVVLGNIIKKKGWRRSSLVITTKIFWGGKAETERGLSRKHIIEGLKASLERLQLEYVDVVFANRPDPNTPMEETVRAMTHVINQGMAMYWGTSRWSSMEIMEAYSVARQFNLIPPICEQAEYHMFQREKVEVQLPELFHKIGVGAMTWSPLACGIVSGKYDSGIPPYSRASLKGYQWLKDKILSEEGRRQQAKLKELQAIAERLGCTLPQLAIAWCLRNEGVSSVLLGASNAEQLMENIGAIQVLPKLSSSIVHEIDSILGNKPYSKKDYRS

[2] = target: T1, Kvβ2 (β-subunit of the voltage-gated potassium channel); test: NADPH oxidation, specific activity at […]; type: biochemical; remark: listed apart in the source
[3] = tested on: O=C1C(=O)c2ccccc2-c2ccccc21; test: steady-state NADPH oxidation kinetics; type: biochemical, Rattus norvegicus
[4] = target: T1, Kvβ2 (β-subunit of the voltage-gated potassium channel); test: intrinsic fluorescence titration; type: binding
Kvβ2:Y90F = target: T2, Kvβ2:Y90F (Rattus norvegicus, UniProt P62483, Y90F); test: intrinsic fluorescence titration; type: binding
T2 sequence (P62483 39-367 Y90F): T1 sequence (P62483 39-367) with Y52F

purified protein = substrate: O=Cc1ccc([N+](=O)[O-])cc1; test: purified protein; conditions: NADPH active site, Tyr-90 acid-base catalyst; binds after NADPH
[5] = substrate: CC(=O)C=O; test: steady-state NADPH oxidation kinetics; type: biochemical, Rattus norvegicus; conditions: NADPH
[6] = substrate: CC(=O)c1ccc([N+](=O)[O-])cc1; test: steady-state NADPH oxidation kinetics; type: biochemical, Rattus norvegicus; conditions: NADPH active site, Tyr-90 acid-base catalyst

- Specific activity [1]: 0.086 ± 0.019 min⁻¹
Molecule: CCCCC[C@H](O)/C=C/[C@H]1C(=O)C=C[C@@H]1C/C=C\CCCC(=O)O [PGJ2]

- Specific activity [2]: 0.044 ± 0.007 min⁻¹
Molecule: CCCCC/C=C\CC(=O)/C=C/C=C\C/C=C\CCCC(=O)O [12-oxoETE]

Molecule: Kvβ2 (β-subunit of the voltage-gated potassium channel) (Rattus norvegicus)
- Km [3]: 0.24 ± 0.14 mM

Molecule: NC(=O)C1=CN([C@@H]2O[C@H](COP(=O)(O)OP(=O)(O)OC[C@H]3O[C@@H](n4cnc5c(N)ncnc54)[C@H](OP(=O)(O)O)[C@@H]3O)[C@@H](O)[C@H]2O)C=CC1 [NADPH]
- Kd [4]: 200 ± 5 nM
- Kd (Kvβ2:Y90F): 130 ± 11 nM

B1: Kvβ2 (β-subunit of the voltage-gated potassium channel) (Rattus norvegicus) (protein)
chain: T1 sequence (P62483 39-367)
- Km (purified protein): 283 ± 31 µM
- kcat (purified protein): 0.00267 s⁻¹
- kcat/Km (purified protein): 9.83 M⁻¹ s⁻¹
- Km [5]: 12 ± 1.0 mM
- Km [6]: 209 ± 49 µM
- kcat [6]: 0.00153 ± 0.0001 s⁻¹
- kcat/Km [6]: 7.67 ± 1.5 M⁻¹ s⁻¹
